The assay deals with TAFA4. Nature of the assay: TAFA4 synthesis in normal human keratinocyte culture supernatant, dot blot. Format: cell-based. Conditions: 72 hours of incubation, EGF 30 ng/ml, versus KGM medium control set to 100%, statistically significant. Here is the method: Normal human keratinocytes (NHK) have been used in this study. They come from Promocell (Germany). The cells are seeded at 100,000 cells/well in the 24-well plates in KGM. After 24 hours, the cells are incubated with the compound shown in the table below in KBM+P/S medium at 37° C., 5% CO2.
After 72 hours of incubation, the supernatants and protein extracts (obtained from the cell layer) were recovered and stored at −80° C.
After 72 hours of incubation at 37° C., 5% CO2, the supernatants and protein extracts (obtained from the cell layer) are recovered and stored at −80° C.
Before assaying the TAFA4 protein, an evaluation of the toxicity of the compounds is performed using the MTT test. Only the concentrations making it possible to obtain a viability greater than 80% are selected to be quantified by ELISA and dot blot.
The results are expressed as a percentage of TAFA4 expression by standardising the control to 100% (KGM medium control). The data have been obtained from an independent experiment carried out in triplicate.

B1: EGF: epidermal growth factor protein, AF-100-15, Peprotech (protein, UniProt P01133 23-1207, looked up)
Pro-epidermal growth factor: PQHWSCPEGTLAGNGNSTCVGPAPFLIFSHGNSIFRIDTEGTNYEQLVVDAGVSVIMDFHYNEKRIYWVDLERQLLQRVFLNGSRQERVCNIEKNVSGMAINWINEEVIWSNQQEGIITVTDMKGNNSHILLSALKYPANVAVDPVERFIFWSSEVAGSLYRADLDGVGVKALLETSEKITAVSLDVLDKRLFWIQYNREGSNSLICSCDYDGGSVHISKHPTQHNLFAMSLFGDRIFYSTWKMKTIWIANKHTGKDMVRINLHSSFVPLGELKVVHPLAQPKAEDDTWEPEQKLCKLRKGNCSSTVCGQDLQSHLCMCAEGYALSRDRKYCEDVNECAFWNHGCTLGCKNTPGSYYCTCPVGFVLLPDGKRCHQLVSCPRNVSECSHDCVLTSEGPLCFCPEGSVLERDGKTCSGCSSPDNGGCSQLCVPLSPVSWECDCFPGYDLQLDEKSCAASGPQPFLLFANSQDIRHMHFDGTDYGTLLSQQMGMVYALDHDPVENKIYFAHTALKWIERANMDGSQRERLIEEGVDVPEGLAVDWIGRRFYWTDRGKSLIGRSDLNGKRSKIITKENISQPRGIAVHPMAKRLFWTDTGINPRIESSSLQGLGRLVIASSDLIWPSGITIDFLTDKLYWCDAKQSVIEMANLDGSKRRRLTQNDVGHPFAVAVFEDYVWFSDWAMPSVMRVNKRTGKDRVRLQGSMLKPSSLVVVHPLAKPGADPCLYQNGGCEHICKKRLGTAWCSCREGFMKASDGKTCLALDGHQLLAGGEVDLKNQVTPLDILSKTRVSEDNITESQHMLVAEIMVSDQDDCAPVGCSMYARCISEGEDATCQCLKGFAGDGKLCSDIDECEMGVPVCPPASSKCINTEGGYVCRCSEGYQGDGIHCLDIDECQLGEHSCGENASCTNTEGGYTCMCAGRLSEPGLICPDSTPPPHLREDDHHYSVRNSDSECPLSHDGYCLHDGVCMYIEALDKYACNCVVGYIGERCQYRDLKWWELRHAGHGQQQKVIVVAVCVVVLVMLLLLSLWGAHYYRTQKLLSKNPKNPYEESSRDVRSRRPADTEDGMSSCPQPWFVVIKEHQDLKNGGQPVAGEDGQAADGSMQPTSWRQEPQLCGMGTEQGCWIPVSSDKGSCPQVMERSFHMPSYGTQTLEGGVEKPHSLLSANPLWQQRALDPPHQMELTQ
modifications: Pro-epidermal growth factor
notes: epidermal growth factor protein, AF-100-15, Peprotech
Take B1: the “effect on the synthesis of TAFA4 (modulation of TAFA4 in the NHK supernatant)” value is “inhibits the synthesis of TAFA4”.

For the origin of these results see patent US20260235581A1, “METHOD FOR THE SELECTION OF AN ECOBIOLOGICAL COMPOUND CAPABLE OF INCREASING THE SKIN TOLERANCE THRESHOLD” (NAOS INSTITUTE OF LIFE SCIENCE, priority 2023, published 2026).
